T1: IL-18 receptor (IL-18Rα and IL-18Rβ) on HEK-Blue IL-18 cells (UniProt Q13478 19-541; O95256 20-599, limits assumed)
T1 sequence (looked up) 1: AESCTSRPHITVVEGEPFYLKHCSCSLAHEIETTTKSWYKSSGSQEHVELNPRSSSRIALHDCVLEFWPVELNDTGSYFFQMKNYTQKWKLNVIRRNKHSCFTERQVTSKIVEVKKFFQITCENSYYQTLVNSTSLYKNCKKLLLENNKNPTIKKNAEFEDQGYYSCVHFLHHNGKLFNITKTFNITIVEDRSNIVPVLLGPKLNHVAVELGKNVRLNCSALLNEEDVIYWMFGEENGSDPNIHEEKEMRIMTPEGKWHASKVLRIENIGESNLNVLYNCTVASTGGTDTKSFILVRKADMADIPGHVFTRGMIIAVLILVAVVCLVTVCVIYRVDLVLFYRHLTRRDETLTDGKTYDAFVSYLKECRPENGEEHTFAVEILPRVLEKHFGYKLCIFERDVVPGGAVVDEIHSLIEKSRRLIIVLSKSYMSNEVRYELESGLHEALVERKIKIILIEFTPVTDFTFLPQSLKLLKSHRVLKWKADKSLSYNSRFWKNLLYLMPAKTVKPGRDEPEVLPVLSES
T1 sequence (looked up) 2: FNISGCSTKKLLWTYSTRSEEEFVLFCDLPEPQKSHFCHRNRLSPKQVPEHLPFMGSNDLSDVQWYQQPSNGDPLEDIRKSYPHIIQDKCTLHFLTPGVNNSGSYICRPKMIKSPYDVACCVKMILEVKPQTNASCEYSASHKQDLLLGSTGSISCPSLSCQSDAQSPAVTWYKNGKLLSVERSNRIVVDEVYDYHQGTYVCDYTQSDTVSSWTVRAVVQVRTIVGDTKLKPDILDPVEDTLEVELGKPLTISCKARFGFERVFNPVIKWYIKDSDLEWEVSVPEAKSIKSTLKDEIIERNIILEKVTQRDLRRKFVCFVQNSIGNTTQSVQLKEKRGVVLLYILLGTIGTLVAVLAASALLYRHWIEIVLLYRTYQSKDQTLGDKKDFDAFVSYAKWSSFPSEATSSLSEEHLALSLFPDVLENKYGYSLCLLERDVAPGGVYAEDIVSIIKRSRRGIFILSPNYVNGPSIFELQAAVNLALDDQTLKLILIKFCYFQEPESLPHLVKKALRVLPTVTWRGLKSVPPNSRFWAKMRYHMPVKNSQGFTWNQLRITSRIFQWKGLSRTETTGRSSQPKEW

B1: DGL215 (bispecific antibody)
chain 1: QVQLVESGGGLVQAGGSLRLSCAASGRTFSKHAMGWFRQAPGKEREFVAAIDWSGGSTYYADSVKGRFTISRDNAKNTVYLQMDSLKPEDTAVYYCAADSYTDYAQLWLPELESEYDYWGQGTLVTVSSDKTHTCPPCPAPEAAGAPSVFLFPPKPKDTLMISRTPEVTCVVVDVSHEDPEVKFNWYVDGVEVHNAKTKPREEQYNSTYRVVSVLTVLHQDWLNGKEYKCKVSNKALPAPIEKTISKAKGQPREPQVCTLPPSRDELTKNQVSLSCAVKGFYPSDIAVEWESNGQPENNYKTTPPVLDSDGSFFLVSKLTVDKSRWQQGNVFSCSVMHEALHNHYTQKSLSLSPGWSHPQFEK
chain 2: QLQLVESGGGLVQAGGSLRLSCAASRSITFSHNVMGWYRQAPGKQRELVASIGSGGSTNYVDSVKGRATISRDNAKKTVYLQMNSLKPEDTAVYYCGVVVGVYRGSLGQGTLVTVSSPLAPCPPCPAPEAAGAPSVFLFPPKPKDTLMISRTPEVTCVVVDVSHEDPEVKFNWYVDGVEVHNAKTKPREEQYNSTYRVVSVLTVLHQDWLNGKEYKCKVSNKALPAPIEKTISKAKGQPREPQVYTLPPCRDELTKNQVSLWCLVKGFYPSDIAVEWESNGQPENNYKTTPPVLDSDGSFFLYSKLTVDKSRWQQGNVFSCSVMHEALHNHYTQKSLSLSPGEPEA
B2: DGL217 (bispecific antibody)
chain 1: QVQLVESGGGLVQAGGSLRLSCAASGRTFSKHAMGWFRQAPGKEREFVAAIDWSGGSTYYADSVKGRFTISRDNAKNTVYLQMDSLKPEDTAVYYCAADSYTDYAQLWLPELESEYDYWGQGTLVTVSSDKTHTCPPCPAPEAAGAPSVFLFPPKPKDTLMISRTPEVTCVVVDVSHEDPEVKFNWYVDGVEVHNAKTKPREEQYNSTYRVVSVLTVLHQDWLNGKEYKCKVSNKALPAPIEKTISKAKGQPREPQVCTLPPSRDELTKNQVSLSCAVKGFYPSDIAVEWESNGQPENNYKTTPPVLDSDGSFFLVSKLTVDKSRWQQGNVFSCSVMHEALHNHYTQKSLSLSPGWSHPQFEK
chain 2: QLQLVESGGGLVQAGGSLRLSCAASRSITFSHNVMGWYRQAPGKQRELVASIGSGGSTNYVDSVKGRATISRDNAKKTVYLQMNSLKPEDTAVYYCGVVVGVYRGSLGQGTLVTVSSEKSYGPPCPPCPAPEAAGAPSVFLFPPKPKDTLMISRTPEVTCVVVDVSHEDPEVKFNWYVDGVEVHNAKTKPREEQYNSTYRVVSVLTVLHQDWLNGKEYKCKVSNKALPAPIEKTISKAKGQPREPQVYTLPPCRDELTKNQVSLWCLVKGFYPSDIAVEWESNGQPENNYKTTPPVLDSDGSFFLYSKLTVDKSRWQQGNVFSCSVMHEALHNHYTQKSLSLSPGEPEA
B3: DGL216 (bispecific antibody)
chain 1: QVQLVESGGGLVQAGGSLRLSCAASGRTFSKHAMGWFRQAPGKEREFVAAIDWSGGSTYYADSVKGRFTISRDNAKNTVYLQMDSLKPEDTAVYYCAADSYTDYAQLWLPELESEYDYWGQGTLVTVSSDKTHTCPPCPAPEAAGAPSVFLFPPKPKDTLMISRTPEVTCVVVDVSHEDPEVKFNWYVDGVEVHNAKTKPREEQYNSTYRVVSVLTVLHQDWLNGKEYKCKVSNKALPAPIEKTISKAKGQPREPQVCTLPPSRDELTKNQVSLSCAVKGFYPSDIAVEWESNGQPENNYKTTPPVLDSDGSFFLVSKLTVDKSRWQQGNVFSCSVMHEALHNHYTQKSLSLSPGWSHPQFEK
chain 2: QLQLVESGGGLVQAGGSLRLSCAASRSITFSHNVMGWYRQAPGKQRELVASIGSGGSTNYVDSVKGRATISRDNAKKTVYLQMNSLKPEDTAVYYCGVVVGVYRGSLGQGTLVTVSSGGGGSGGGGSGGGGSGGGGSCPPCPAPEAAGAPSVFLFPPKPKDTLMISRTPEVTCVVVDVSHEDPEVKFNWYVDGVEVHNAKTKPREEQYNSTYRVVSVLTVLHQDWLNGKEYKCKVSNKALPAPIEKTISKAKGQPREPQVYTLPPCRDELTKNQVSLWCLVKGFYPSDIAVEWESNGQPENNYKTTPPVLDSDGSFFLYSKLTVDKSRWQQGNVFSCSVMHEALHNHYTQKSLSLSPGEPEA
B4: DGL219 (bispecific antibody)
chain 1: QVQLVESGGGLVQAGGSLRLSCAASGRTFSKHAMGWFRQAPGKEREFVAAIDWSGGSTYYADSVKGRFTISRDNAKNTVYLQMDSLKPEDTAVYYCAADSYTDYAQLWLPELESEYDYWGQGTLVTVSSPLAPDKTHTCPPCPAPEAAGAPSVFLFPPKPKDTLMISRTPEVTCVVVDVSHEDPEVKFNWYVDGVEVHNAKTKPREEQYNSTYRVVSVLTVLHQDWLNGKEYKCKVSNKALPAPIEKTISKAKGQPREPQVCTLPPSRDELTKNQVSLSCAVKGFYPSDIAVEWESNGQPENNYKTTPPVLDSDGSFFLVSKLTVDKSRWQQGNVFSCSVMHEALHNHYTQKSLSLSPGWSHPQFEK
chain 2: not shown
B5: DGL221 (bispecific antibody)
chain 1: QVQLVESGGGLVQAGGSLRLSCAASGRTFSKHAMGWFRQAPGKEREFVAAIDWSGGSTYYADSVKGRFTISRDNAKNTVYLQMDSLKPEDTAVYYCAADSYTDYAQLWLPELESEYDYWGQGTLVTVSSGGGGSGGGGSGGGGSGGGGSCPPCPAPEAAGAPSVFLFPPKPKDTLMISRTPEVTCVVVDVSHEDPEVKFNWYVDGVEVHNAKTKPREEQYNSTYRVVSVLTVLHQDWLNGKEYKCKVSNKALPAPIEKTISKAKGQPREPQVCTLPPSRDELTKNQVSLSCAVKGFYPSDIAVEWESNGQPENNYKTTPPVLDSDGSFFLVSKLTVDKSRWQQGNVFSCSVMHEALHNHYTQKSLSLSPGWSHPQFEK
chain 2: not shown
B6: DGL220 (bispecific antibody)
chain 1: QVQLVESGGGLVQAGGSLRLSCAASGRTFSKHAMGWFRQAPGKEREFVAAIDWSGGSTYYADSVKGRFTISRDNAKNTVYLQMDSLKPEDTAVYYCAADSYTDYAQLWLPELESEYDYWGQGTLVTVSSPLAPCPPCPAPEAAGAPSVFLFPPKPKDTLMISRTPEVTCVVVDVSHEDPEVKFNWYVDGVEVHNAKTKPREEQYNSTYRVVSVLTVLHQDWLNGKEYKCKVSNKALPAPIEKTISKAKGQPREPQVCTLPPSRDELTKNQVSLSCAVKGFYPSDIAVEWESNGQPENNYKTTPPVLDSDGSFFLVSKLTVDKSRWQQGNVFSCSVMHEALHNHYTQKSLSLSPGWSHPQFEK
chain 2: not shown
B7: DGL222 (bispecific antibody)
chain 1: QVQLVESGGGLVQAGGSLRLSCAASGRTFSKHAMGWFRQAPGKEREFVAAIDWSGGSTYYADSVKGRFTISRDNAKNTVYLQMDSLKPEDTAVYYCAADSYTDYAQLWLPELESEYDYWGQGTLVTVSSEKSYGPPCPPCPAPEAAGAPSVFLFPPKPKDTLMISRTPEVTCVVVDVSHEDPEVKFNWYVDGVEVHNAKTKPREEQYNSTYRVVSVLTVLHQDWLNGKEYKCKVSNKALPAPIEKTISKAKGQPREPQVCTLPPSRDELTKNQVSLSCAVKGFYPSDIAVEWESNGQPENNYKTTPPVLDSDGSFFLVSKLTVDKSRWQQGNVFSCSVMHEALHNHYTQKSLSLSPGWSHPQFEK
chain 2: not shown
B8: DGL218 (bispecific antibody)
chain 1: QVQLVESGGGLVQAGGSLRLSCAASGRTFSKHAMGWFRQAPGKEREFVAAIDWSGGSTYYADSVKGRFTISRDNAKNTVYLQMDSLKPEDTAVYYCAADSYTDYAQLWLPELESEYDYWGQGTLVTVSSCPPCPAPEAAGAPSVFLFPPKPKDTLMISRTPEVTCVVVDVSHEDPEVKFNWYVDGVEVHNAKTKPREEQYNSTYRVVSVLTVLHQDWLNGKEYKCKVSNKALPAPIEKTISKAKGQPREPQVCTLPPSRDELTKNQVSLSCAVKGFYPSDIAVEWESNGQPENNYKTTPPVLDSDGSFFLVSKLTVDKSRWQQGNVFSCSVMHEALHNHYTQKSLSLSPGWSHPQFEK
chain 2: not shown
B9: DGL945 (bispecific antibody, human IgG1, lambda)
heavy: EVQLLESGGGLVQPGGSLRLSCAASGFTFSDYYMTWIRQAPGKGLEWVSSISGGSTYYADSRKGRFTISRDNSENTLYLQMNSLRAEDTAVYYCARDFGVAGWFGQYGMDVWGQGTLVTVSSPLAPEVQLLESGGGLVQPGGSLRLSCAASGFTFSSYAMSWVRQAPGKGLEWVANINQDGSEKNYVDSMRGRFTISRDNSKNTLYLQMNSLRAEDTAVYYCAREFDYWGQGTLVTVSSASTKGPSVFPLAPSSKSTSGGTAALGCLVKDYFPEPVTVSWNSGALTSGVHTFPAVLQSSGLYSLSSVVTVPSSSLGTQTYICNVNHKPSNTKVDKKVEPKSCDKTHTCPPCPAPEAAGAPSVFLFPPKPKDTLYITREPEVTCVVVDVSHEDPEVKFNWYVDGVEVHNAKTKPREEQYNSTYRVVSVLTVLHQDWLNGKEYKCKVSNKALPAPIEKTISKAKGQPREPQVYTLPPSRDELTKNQVSLTCLVKGFYPSDIAVEWESNGQPENNYKTTPPVLDSDGSFFLYSKLTVDKSRWQQGNVFSCSVMHEALHNHYTQKSLSLSPG
light: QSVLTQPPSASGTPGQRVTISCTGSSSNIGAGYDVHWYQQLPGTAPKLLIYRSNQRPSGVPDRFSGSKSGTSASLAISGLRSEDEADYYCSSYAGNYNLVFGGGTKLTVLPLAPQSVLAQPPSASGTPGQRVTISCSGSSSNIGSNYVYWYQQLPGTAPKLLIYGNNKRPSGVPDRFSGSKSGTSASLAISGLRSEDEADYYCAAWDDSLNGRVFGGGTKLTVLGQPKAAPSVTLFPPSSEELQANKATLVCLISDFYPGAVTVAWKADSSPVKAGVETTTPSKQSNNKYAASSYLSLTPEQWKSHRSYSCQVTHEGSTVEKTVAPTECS

Target: T1, IL-18 receptor (IL-18Rα and IL-18Rβ) on …
Assay: cell-based or functional assay

Going from B1 to B2, the “HEK-Blue assay, % human IL18” value rises from 40 % human IL18 to 45 % human IL18.

B3 was tested, and the “HEK-Blue assay, % human IL18” value was 22 % human IL18.

Target: T1, IL-18 receptor (IL-18Rα and IL-18Rβ) on …
Assay: cell-based or functional assay
Remark: another data set of the same source

Compared with B4, B5 is lower in “HEK-Blue assay, % human IL18” value: 35 % human IL18 for the first, 19 % human IL18 for the second.

Going from B6 to B7, the “HEK-Blue assay, % human IL18” value falls from 53 % human IL18 to 44 % human IL18.

For B8, the “HEK-Blue assay, % human IL18” value was 44 % human IL18.

Target: ALK1 / BMPRII receptor pair (BMPR Type I receptor ALK1 and BMPR Type II receptor BMPRII) on cells (UniProt P37023 22-503; Q13873 27-1038, limits assumed)
Sequence (P37023 22-503 limits assumed, chain 1 of 2): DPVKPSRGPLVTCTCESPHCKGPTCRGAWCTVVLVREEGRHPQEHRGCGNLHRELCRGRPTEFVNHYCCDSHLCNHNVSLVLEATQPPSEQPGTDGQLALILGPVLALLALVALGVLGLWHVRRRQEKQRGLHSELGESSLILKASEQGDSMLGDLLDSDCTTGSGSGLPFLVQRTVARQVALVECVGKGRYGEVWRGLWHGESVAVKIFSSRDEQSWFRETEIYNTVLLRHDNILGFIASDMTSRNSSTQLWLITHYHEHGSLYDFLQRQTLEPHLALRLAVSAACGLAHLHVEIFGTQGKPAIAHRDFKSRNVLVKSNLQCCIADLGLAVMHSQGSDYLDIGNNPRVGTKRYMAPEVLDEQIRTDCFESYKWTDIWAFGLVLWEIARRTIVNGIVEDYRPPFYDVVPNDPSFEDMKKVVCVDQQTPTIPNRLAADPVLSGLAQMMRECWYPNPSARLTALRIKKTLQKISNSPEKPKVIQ
Sequence (Q13873 27-1038 limits assumed, chain 2 of 2): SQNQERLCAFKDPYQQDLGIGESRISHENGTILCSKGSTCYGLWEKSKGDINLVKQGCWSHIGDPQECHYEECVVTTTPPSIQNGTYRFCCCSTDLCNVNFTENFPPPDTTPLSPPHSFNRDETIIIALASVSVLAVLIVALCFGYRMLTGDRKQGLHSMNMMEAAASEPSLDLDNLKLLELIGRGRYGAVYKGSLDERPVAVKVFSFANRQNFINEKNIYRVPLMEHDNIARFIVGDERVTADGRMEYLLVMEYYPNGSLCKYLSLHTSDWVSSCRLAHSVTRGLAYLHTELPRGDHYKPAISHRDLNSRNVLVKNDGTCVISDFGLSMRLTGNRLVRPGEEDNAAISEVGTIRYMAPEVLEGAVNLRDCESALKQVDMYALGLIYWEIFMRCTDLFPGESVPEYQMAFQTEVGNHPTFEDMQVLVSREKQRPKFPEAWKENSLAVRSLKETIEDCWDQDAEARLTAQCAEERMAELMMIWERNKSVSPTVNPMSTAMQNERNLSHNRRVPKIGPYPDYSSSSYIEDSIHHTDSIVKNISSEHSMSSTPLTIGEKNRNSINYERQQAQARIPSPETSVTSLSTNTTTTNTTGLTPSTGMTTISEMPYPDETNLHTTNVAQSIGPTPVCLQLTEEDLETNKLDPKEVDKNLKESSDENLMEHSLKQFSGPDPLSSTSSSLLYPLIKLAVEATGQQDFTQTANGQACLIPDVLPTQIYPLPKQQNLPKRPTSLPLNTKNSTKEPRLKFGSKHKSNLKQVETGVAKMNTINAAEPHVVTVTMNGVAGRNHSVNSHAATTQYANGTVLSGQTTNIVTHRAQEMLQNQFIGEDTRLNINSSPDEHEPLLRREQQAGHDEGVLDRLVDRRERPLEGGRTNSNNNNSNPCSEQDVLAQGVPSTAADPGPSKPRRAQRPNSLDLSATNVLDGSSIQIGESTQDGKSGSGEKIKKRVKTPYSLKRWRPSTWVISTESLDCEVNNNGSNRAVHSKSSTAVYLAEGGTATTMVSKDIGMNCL
Assay: cell-based or functional assay

B9 was tested, and the “Agonist activity in DiscoverX assay, % Emax BMP9” value was 78 % Emax BMP9.

— patent US20240383990A1 (DIAGONAL THERAPEUTICS, published 2024)
